Experiments:
[1] = target: Monoclonal antibody M.Ab.F11; assay: platelet adhesion to immobilized M.Ab.F11 (150 ng/well), BCA protein read-out; peptide at 50 µM
[2] = target: Monoclonal antibody M.Ab.F11; assay: platelet adhesion to immobilized M.Ab.F11 (150 ng/well), BCA protein read-out; peptide at 500 µM

Binder	% inhibition of the adhesion of platelets to immobilized M.Ab.F11 [1] [%]	% inhibition of the adhesion of platelets to immobilized M.Ab.F11 [2] [%]
KSVTREDTGTYTC [F11R-peptide 4]	10	70
SVTVHSSEPEVRIPENNPVKLSC [F11R-peptide 1]	60	70

Reference: patent US20120035094A1
